From patent US20160331662A1, “Compositions that Inhibit and Prevent the Formation of Dental Caries and Methods of Using the Same” (priority 2014, published 2016) come the findings set out here.

Experiment [1] deals with GbpC (S. mutans), glucan binding protein C (Streptococcus mutans). The experiment is described as follows: SPR, peptide over immobilized GbpC. (In SPR one partner is held on a chip, and binding of the other changes the refractive index at the surface.)
Experiment [2] deals with A3VP1^SspB (S. gordonii DL1 SspB, residues 386-805) (Streptococcus gordonii DL1) (UniProt P16952).
The target in experiment [3] is C123^SspB (S. gordonii DL1 SspB, residues 913-1406) (Streptococcus gordonii DL1) (UniProt P16952).
The target in experiment [4] is A3VP1^SspB (S. gordonii DL1 SspB, residues 386-805) (Streptococcus gordonii DL1) (UniProt P16952). In words: SPR; 2 µM A3VP1^SspB incubated with 0.005 mM peptide, over immobilized iSRCR1.
Experiment [5] addresses T1, A3VP1^AgI/II (Streptococcus mutans UA159), P23504.
T1 chain: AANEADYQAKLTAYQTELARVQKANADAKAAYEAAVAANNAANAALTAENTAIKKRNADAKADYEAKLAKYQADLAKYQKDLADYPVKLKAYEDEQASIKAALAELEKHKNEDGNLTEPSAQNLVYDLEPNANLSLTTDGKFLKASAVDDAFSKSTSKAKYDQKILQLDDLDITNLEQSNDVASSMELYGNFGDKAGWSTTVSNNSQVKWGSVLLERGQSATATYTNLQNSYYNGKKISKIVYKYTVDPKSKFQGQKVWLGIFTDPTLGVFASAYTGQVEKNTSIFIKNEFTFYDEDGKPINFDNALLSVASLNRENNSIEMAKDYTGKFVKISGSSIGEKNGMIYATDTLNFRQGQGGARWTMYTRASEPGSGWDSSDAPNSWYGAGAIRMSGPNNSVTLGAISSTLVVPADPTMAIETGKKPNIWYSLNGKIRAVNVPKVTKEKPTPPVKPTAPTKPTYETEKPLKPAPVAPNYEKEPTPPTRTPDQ
The experiment is described as follows: SPR; 2 µM A3VP1^AgI/II incubated with 0.005 mM peptide, over immobilized iSRCR1.

Experiment [6] concerns the target T2, C123^AgI/II (Streptococcus mutans UA159), P23504.
T2 chain: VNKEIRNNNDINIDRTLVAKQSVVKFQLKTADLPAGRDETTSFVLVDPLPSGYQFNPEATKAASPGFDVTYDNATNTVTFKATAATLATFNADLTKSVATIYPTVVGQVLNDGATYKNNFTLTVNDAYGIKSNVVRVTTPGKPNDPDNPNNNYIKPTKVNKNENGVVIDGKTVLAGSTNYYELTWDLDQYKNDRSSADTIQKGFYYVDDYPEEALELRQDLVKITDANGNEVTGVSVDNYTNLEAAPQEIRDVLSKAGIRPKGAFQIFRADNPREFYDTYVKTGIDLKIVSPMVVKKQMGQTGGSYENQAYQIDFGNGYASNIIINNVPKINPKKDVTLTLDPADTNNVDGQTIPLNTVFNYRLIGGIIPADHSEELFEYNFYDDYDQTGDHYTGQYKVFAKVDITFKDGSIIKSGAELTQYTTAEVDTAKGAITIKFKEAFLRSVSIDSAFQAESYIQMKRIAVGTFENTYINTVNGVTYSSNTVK

Experiment [7] has as its target T1, A3VP1^AgI/II (Streptococcus mutans …).
The target of experiment [8] is T3, FL^SspB (S. gordonii DL1 SspB, residues 39-1433) (Streptococcus gordonii DL1), P16952.
T3 chain: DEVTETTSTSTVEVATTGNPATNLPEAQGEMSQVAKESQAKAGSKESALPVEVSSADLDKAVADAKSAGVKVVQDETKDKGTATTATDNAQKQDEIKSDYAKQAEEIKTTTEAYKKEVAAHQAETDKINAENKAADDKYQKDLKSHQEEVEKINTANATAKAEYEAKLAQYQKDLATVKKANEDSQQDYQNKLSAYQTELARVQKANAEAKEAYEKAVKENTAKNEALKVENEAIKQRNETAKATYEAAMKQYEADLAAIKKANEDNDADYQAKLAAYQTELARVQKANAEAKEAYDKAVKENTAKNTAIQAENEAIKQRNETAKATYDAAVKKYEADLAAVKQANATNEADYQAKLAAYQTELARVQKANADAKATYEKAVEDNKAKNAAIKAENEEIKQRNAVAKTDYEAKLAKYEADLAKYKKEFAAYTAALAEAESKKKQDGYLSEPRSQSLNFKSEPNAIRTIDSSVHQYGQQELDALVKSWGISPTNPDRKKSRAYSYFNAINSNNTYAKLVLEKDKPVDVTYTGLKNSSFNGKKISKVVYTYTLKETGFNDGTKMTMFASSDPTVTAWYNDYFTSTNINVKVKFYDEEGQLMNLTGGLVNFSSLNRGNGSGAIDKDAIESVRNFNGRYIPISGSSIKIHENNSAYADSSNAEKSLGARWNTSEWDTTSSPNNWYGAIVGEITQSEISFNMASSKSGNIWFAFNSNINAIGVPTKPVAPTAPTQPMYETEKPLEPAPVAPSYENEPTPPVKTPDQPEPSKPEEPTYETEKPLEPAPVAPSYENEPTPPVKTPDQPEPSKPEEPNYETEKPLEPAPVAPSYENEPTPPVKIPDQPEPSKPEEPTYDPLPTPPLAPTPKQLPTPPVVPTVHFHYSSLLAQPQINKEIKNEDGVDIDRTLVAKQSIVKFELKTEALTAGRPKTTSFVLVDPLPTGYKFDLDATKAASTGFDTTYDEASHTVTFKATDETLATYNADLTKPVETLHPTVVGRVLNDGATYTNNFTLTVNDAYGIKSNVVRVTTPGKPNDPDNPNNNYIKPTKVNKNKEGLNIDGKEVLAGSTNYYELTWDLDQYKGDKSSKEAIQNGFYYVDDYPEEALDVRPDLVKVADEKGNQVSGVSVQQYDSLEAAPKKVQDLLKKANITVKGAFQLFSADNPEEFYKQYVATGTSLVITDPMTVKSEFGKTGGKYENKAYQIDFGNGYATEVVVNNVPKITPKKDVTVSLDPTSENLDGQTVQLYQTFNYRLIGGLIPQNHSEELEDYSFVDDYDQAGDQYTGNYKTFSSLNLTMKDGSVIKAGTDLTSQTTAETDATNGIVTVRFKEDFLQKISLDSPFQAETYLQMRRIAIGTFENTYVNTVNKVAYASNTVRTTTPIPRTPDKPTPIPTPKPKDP

The target in experiment [9] is T4, FL^AgI/II (S. mutans UA159 Antigen I/II, full length recombinant construct) (Streptococcus mutans UA159), P23504.
T4 chain: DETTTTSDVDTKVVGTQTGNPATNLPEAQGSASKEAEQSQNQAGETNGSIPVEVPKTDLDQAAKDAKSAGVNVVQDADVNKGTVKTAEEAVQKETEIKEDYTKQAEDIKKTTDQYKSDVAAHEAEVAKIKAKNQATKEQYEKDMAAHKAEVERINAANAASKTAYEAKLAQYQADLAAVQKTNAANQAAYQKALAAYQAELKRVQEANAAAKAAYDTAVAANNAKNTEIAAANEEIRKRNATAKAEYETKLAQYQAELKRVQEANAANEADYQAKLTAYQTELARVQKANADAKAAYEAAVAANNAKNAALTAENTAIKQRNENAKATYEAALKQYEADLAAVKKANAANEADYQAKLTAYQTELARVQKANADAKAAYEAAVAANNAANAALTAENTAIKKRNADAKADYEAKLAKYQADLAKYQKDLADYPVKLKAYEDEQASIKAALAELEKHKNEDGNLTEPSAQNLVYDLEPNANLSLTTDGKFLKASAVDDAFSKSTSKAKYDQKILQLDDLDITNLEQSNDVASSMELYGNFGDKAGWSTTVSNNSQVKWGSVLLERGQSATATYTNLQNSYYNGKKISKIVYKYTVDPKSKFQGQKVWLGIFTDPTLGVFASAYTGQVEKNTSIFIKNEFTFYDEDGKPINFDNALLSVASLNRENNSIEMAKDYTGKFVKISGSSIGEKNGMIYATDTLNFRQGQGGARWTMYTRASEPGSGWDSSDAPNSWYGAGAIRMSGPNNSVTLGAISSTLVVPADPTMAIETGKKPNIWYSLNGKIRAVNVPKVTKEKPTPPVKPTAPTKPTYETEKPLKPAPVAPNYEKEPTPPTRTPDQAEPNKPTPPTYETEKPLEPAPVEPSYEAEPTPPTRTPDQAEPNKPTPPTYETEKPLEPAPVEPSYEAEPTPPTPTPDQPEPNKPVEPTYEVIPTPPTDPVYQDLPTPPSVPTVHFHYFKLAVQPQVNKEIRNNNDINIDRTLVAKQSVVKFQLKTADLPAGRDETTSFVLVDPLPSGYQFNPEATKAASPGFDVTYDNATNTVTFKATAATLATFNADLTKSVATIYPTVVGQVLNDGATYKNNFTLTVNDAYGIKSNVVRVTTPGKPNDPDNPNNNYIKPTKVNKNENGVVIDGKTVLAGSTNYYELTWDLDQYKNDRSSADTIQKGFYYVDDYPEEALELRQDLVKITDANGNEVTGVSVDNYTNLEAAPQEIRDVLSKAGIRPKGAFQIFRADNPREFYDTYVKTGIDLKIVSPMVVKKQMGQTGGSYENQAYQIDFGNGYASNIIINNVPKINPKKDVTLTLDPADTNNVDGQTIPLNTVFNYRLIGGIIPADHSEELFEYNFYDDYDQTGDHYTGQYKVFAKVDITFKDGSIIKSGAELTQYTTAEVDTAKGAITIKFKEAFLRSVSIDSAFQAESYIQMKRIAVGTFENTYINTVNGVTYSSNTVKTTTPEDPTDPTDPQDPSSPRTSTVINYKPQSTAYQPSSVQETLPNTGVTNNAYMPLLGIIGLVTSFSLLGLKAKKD

Experiment [10] concerns the target T3, FL^SspB (S. gordonii DL1 SspB, residues …). In words: SPR; 2 µM FL^SspB incubated with 0.005 mM peptide, over immobilized iSRCR1.
Experiment [11] deals with T4, FL^AgI/II (S. mutans UA159 Antigen …). In words: SPR; 2 µM FL^AgI/II incubated with 0.005 mM peptide, over immobilized iSRCR1.

For orientation: Kd means the free concentration of one partner at which half of the binding sites on the other are occupied at equilibrium, for simple one-to-one binding. The term koff denotes the rate constant with which the complex falls apart. Read a high koff as fast dissociation. For orientation: kon means a measure of how fast the partners come together. Low readings indicate slower complex formation, high ones faster complex formation.

No end group written: not given here. FAM = fluorescein amidite

As for ETNDANVVARQL (modifications not checked) [SRCR peptide …], in experiment [1], the Ka stood at 2.57e+08 M⁻¹, the equilibrium dissociation constant (Kd) worked out at 3.89 nM, the koff amounted to 0.0573 s⁻¹ and the on-rate (kon) came to 1.47e+07 M⁻¹ s⁻¹.

In the case of QGRVEVLYRGSWGTVCK-{FAM} [SRCRP2 peptide with fluorescein amidite (FAM) at the carboxyl end (…-[FAM])], the % change of adherence to iSRCR123 in experiment [2] turned out to be 3%; in experiment [3], 5%; in experiment [6] it was 7%. In addition, the % change of adherence to iSRCR1 in experiment [3] was determined as 4%; in experiment [4], 3%; in experiment [6] it was 2.3%. The % improvement of adherence to iSRCR1 in [5] is 13%; in experiment [10], 97%; in experiment [11], 8%. Besides, the % improvement of adherence to iSRCR123 in experiment [7] was determined as 16%; in [8] it was 91%; in experiment [9], 8%.
